Values of other authors in patent publication EP1600162A1, “Shelf-stable formulation of glucagon-like peptide-1” (Eli Lilly & Company, priority 1998, dated 2005).

Settings: stored at 4° C

GLP-1(7-37): GLP-1 molecule affected by dipeptidyl-peptidase IV; background peptide
time after sample preparation at which by-products have been found: eleven
